{"source": "the supplement of paper PMC10567573", "parents": {"B1": {"name": "MLL5 (parent)", "chain": "EQIAERKRKMVSWEASSLGLVTAA"}}}
{"variants_of": "B1", "assay": "protein stability index of a GFP-peptide fusion (GPS, HEK-293T) (PSI 1-6); higher = more stable", "conditions": "c terminus: a fixed tail appended"}
{"variant": "EQIAERKRSMVSWEASSLGLVTAA", "note": "[K9S]", "protein stability index": 3.51}
{"variant": "EQIAERKRCMVSWEASSLGLVTAA", "note": "[K9C]", "protein stability index": 1.53}
{"variant": "EQIAERKRMMVSWEASSLGLVTAA", "note": "[K9M]", "protein stability index": 2.38}
{"variant": "EQIAERKRYMVSWEASSLGLVTAA", "note": "[K9Y]", "protein stability index": 2.97}
{"variant": "EQIAERKRFMVSWEASSLGLVTAA", "note": "[K9F]", "protein stability index": 2.06}
{"variant": "EQIAEYKRKMVSWEASSLGLVTAA", "note": "[R6Y]", "protein stability index": 2.78}
{"variant": "EQIAEAKRKMVSWEASSLGLVTAA", "note": "[R6A]", "protein stability index": 4.14}
{"variant": "EQIAERKRKMVSWEASTLGLVTAA", "note": "[S17T]", "protein stability index": 2.98}
{"variant": "EQIAERKRKMVSWEASELGLVTAA", "note": "[S17E]", "protein stability index": 3.41}
{"variant": "EQIAERKRKMVSWEASSLGKVTAA", "note": "[L20K]", "protein stability index": 3.9}
{"variant": "EQIAERKRKMVSWEASSLGNVTAA", "note": "[L20N]", "protein stability index": 3.62}
{"variant": "EQIAERKRKMVSWEASSLGFVTAA", "note": "[L20F]", "protein stability index": 3.35}
{"variant": "EQIAERKRKMVSWEASSLGLVTPA", "note": "[A23P]", "protein stability index": 3.41}
{"variant": "EQIAERKRKMVSWEASSLGLVTTA", "note": "[A23T]", "protein stability index": 2.31}
{"variant": "EQIAERKRKMVSWEASSLGLVTCA", "note": "[A23C]", "protein stability index": 3.12}
{"variant": "EQIAERKRKMVSWEASSLGLVTDA", "note": "[A23D]", "protein stability index": 3.98}
{"variant": "EQIAERKRKMVSWEASSPGLVTAA", "note": "[L18P]", "protein stability index": 3.4}
{"variant": "EQIAERKRKMVSWEASSMGLVTAA", "note": "[L18M]", "protein stability index": 3.16}
{"variant": "EQIAERKRKMVSWEASSGGLVTAA", "note": "[L18G]", "protein stability index": 3.48}
{"variant": "EQIAERKRKMVSWEASSRGLVTAA", "note": "[L18R]", "protein stability index": 3.01}
{"variant": "EQIAERKRKMVSWEASSIGLVTAA", "note": "[L18I]", "protein stability index": 1.91}
{"variant": "EQIAERKRKMVSWEASSLGLVQAA", "note": "[T22Q]", "protein stability index": 3.73}
{"variant": "EQIAERKRKMVSWEASSLGLVNAA", "note": "[T22N]", "protein stability index": 3.21}
{"variant": "EQIAERKRKMVSWEASSLGLVIAA", "note": "[T22I]", "protein stability index": 1.62}
{"variant": "EQIAERKRKMVSWEASSLGLVYAA", "note": "[T22Y]", "protein stability index": 2.57}
{"variant": "KQIAERKRKMVSWEASSLGLVTAA", "note": "[E1K]", "protein stability index": 4}
{"variant": "PQIAERKRKMVSWEASSLGLVTAA", "note": "[E1P]", "protein stability index": 3.16}
{"variant": "DQIAERKRKMVSWEASSLGLVTAA", "note": "[E1D]", "protein stability index": 3.35}
{"variant": "MQIAERKRKMVSWEASSLGLVTAA", "note": "[E1M]", "protein stability index": 2.41}
{"variant": "AQIAERKRKMVSWEASSLGLVTAA", "note": "[E1A]", "protein stability index": 2.18}
{"variant": "EQEAERKRKMVSWEASSLGLVTAA", "note": "[I3E]", "protein stability index": 2.29}
{"variant": "EQSAERKRKMVSWEASSLGLVTAA", "note": "[I3S]", "protein stability index": 3.05}
{"variant": "EQRAERKRKMVSWEASSLGLVTAA", "note": "[I3R]", "protein stability index": 2.76}
{"variant": "EQIAERKRKMWSWEASSLGLVTAA", "note": "[V11W]", "protein stability index": 3.34}
{"variant": "EQIAERKRKMDSWEASSLGLVTAA", "note": "[V11D]", "protein stability index": 2.81}
{"variant": "EQIAERKRKMMSWEASSLGLVTAA", "note": "[V11M]", "protein stability index": 2.54}
{"variant": "EQIAERKRKMQSWEASSLGLVTAA", "note": "[V11Q]", "protein stability index": 3.16}
{"variant": "EQIAERKRKMHSWEASSLGLVTAA", "note": "[V11H]", "protein stability index": 3.24}
{"variant": "EQIAERKRKMVSWEASSLGLVTAE", "note": "[A24E]", "protein stability index": 4.38}
{"variant": "EQIAERKRKMVSWEASSLGLVTAN", "note": "[A24N]", "protein stability index": 3.25}
{"variant": "EQIAERKRKMVSWEASSLGLVTAF", "note": "[A24F]", "protein stability index": 2.29}
{"variant": "EQIAERKRKMVSWEASSLGLVTAH", "note": "[A24H]", "protein stability index": 3.17}
{"variant": "EQIHERKRKMVSWEASSLGLVTAA", "note": "[A4H]", "protein stability index": 3.39}
{"variant": "EQIRERKRKMVSWEASSLGLVTAA", "note": "[A4R]", "protein stability index": 3.59}
{"variant": "EQIAFRKRKMVSWEASSLGLVTAA", "note": "[E5F]", "protein stability index": 2.68}
{"variant": "EQIAKRKRKMVSWEASSLGLVTAA", "note": "[E5K]", "protein stability index": 3.08}
{"variant": "EQIANRKRKMVSWEASSLGLVTAA", "note": "[E5N]", "protein stability index": 2.07}
{"variant": "EQIAQRKRKMVSWEASSLGLVTAA", "note": "[E5Q]", "protein stability index": 2.79}
{"variant": "EQIAERKRKMVKWEASSLGLVTAA", "note": "[S12K]", "protein stability index": 2.59}
{"variant": "EQIAERKRKMVFWEASSLGLVTAA", "note": "[S12F]", "protein stability index": 2.16}
{"variant": "EQIAERKRKMVHWEASSLGLVTAA", "note": "[S12H]", "protein stability index": 2.35}
{"variant": "EQIAERKRKMVEWEASSLGLVTAA", "note": "[S12E]", "protein stability index": 3.92}
{"variant": "EQIAERKRKMVMWEASSLGLVTAA", "note": "[S12M]", "protein stability index": 3.36}
{"variant": "EQIAERKRKMVPWEASSLGLVTAA", "note": "[S12P]", "protein stability index": 2.59}
{"variant": "EQIAERKRKMVRWEASSLGLVTAA", "note": "[S12R]", "protein stability index": 3.36}
{"variant": "EQIAERKDKMVSWEASSLGLVTAA", "note": "[R8D]", "protein stability index": 2.85}
{"variant": "EQIAERKKKMVSWEASSLGLVTAA", "note": "[R8K]", "protein stability index": 3.56}
{"variant": "EQIAERKRKMVSWIASSLGLVTAA", "note": "[E14I]", "protein stability index": 2.22}
{"variant": "EQIAERKRKMVSWLASSLGLVTAA", "note": "[E14L]", "protein stability index": 2.95}
{"variant": "EQIAERKRKMVSWQASSLGLVTAA", "note": "[E14Q]", "protein stability index": 2.32}
{"variant": "EQIAERKRKMVSWFASSLGLVTAA", "note": "[E14F]", "protein stability index": 1.97}
{"variant": "EQIAERKRKMVSWEMSSLGLVTAA", "note": "[A15M]", "protein stability index": 2.64}
{"variant": "EQIAERKRKMVSWELSSLGLVTAA", "note": "[A15L]", "protein stability index": 2.32}
{"variant": "EQIAERKRKMVSWEKSSLGLVTAA", "note": "[A15K]", "protein stability index": 2.74}
{"variant": "EQIAERKRKMVSWEPSSLGLVTAA", "note": "[A15P]", "protein stability index": 3.77}
{"variant": "EQIAERKRKMVSWEHSSLGLVTAA", "note": "[A15H]", "protein stability index": 3}
{"variant": "ETIAERKRKMVSWEASSLGLVTAA", "note": "[Q2T]", "protein stability index": 3.25}
{"variant": "EMIAERKRKMVSWEASSLGLVTAA", "note": "[Q2M]", "protein stability index": 2.21}
{"variant": "EDIAERKRKMVSWEASSLGLVTAA", "note": "[Q2D]", "protein stability index": 3.66}
{"variant": "EQIAERKRKKVSWEASSLGLVTAA", "note": "[M10K]", "protein stability index": 3.7}
{"variant": "EQIAERKRKFVSWEASSLGLVTAA", "note": "[M10F]", "protein stability index": 2.93}
{"variant": "EQIAERKRKVVSWEASSLGLVTAA", "note": "[M10V]", "protein stability index": 2.82}
{"variant": "EQIAERKRKSVSWEASSLGLVTAA", "note": "[M10S]", "protein stability index": 3.69}
{"variant": "EQIAERKRKAVSWEASSLGLVTAA", "note": "[M10A]", "protein stability index": 3.83}
{"variant": "EQIAERKRKEVSWEASSLGLVTAA", "note": "[M10E]", "protein stability index": 4.23}
{"variant": "EQIAERKRKGVSWEASSLGLVTAA", "note": "[M10G]", "protein stability index": 4.16}
{"variant": "EQIAERKRKMVSWEACSLGLVTAA", "note": "[S16C]", "protein stability index": 2.59}
{"variant": "EQIAERKRKMVSWEAWSLGLVTAA", "note": "[S16W]", "protein stability index": 1.77}
{"variant": "EQIAERKRKMVSWEAISLGLVTAA", "note": "[S16I]", "protein stability index": 1.94}
{"variant": "EQIAERKRKMVSWEAVSLGLVTAA", "note": "[S16V]", "protein stability index": 2.29}
{"variant": "EQIAERKRKMVSGEASSLGLVTAA", "note": "[W13G]", "protein stability index": 4.82}
{"variant": "EQIAERKRKMVSLEASSLGLVTAA", "note": "[W13L]", "protein stability index": 3.86}
{"variant": "EQIAERVRKMVSWEASSLGLVTAA", "note": "[K7V]", "protein stability index": 3.02}
{"variant": "EQIAERMRKMVSWEASSLGLVTAA", "note": "[K7M]", "protein stability index": 1.7}
{"variant": "EQIAERFRKMVSWEASSLGLVTAA", "note": "[K7F]", "protein stability index": 2.74}
{"variant": "EQIAERTRKMVSWEASSLGLVTAA", "note": "[K7T]", "protein stability index": 2.69}
{"variant": "EQIAERLRKMVSWEASSLGLVTAA", "note": "[K7L]", "protein stability index": 1.97}
{"variant": "EQIAERKRKMVSWEASSLGLITAA", "note": "[V21I]", "protein stability index": 3.15}
{"variant": "EQIAERKRKMVSWEASSLGLCTAA", "note": "[V21C]", "protein stability index": 3.05}
{"variant": "EQIAERKRKMVSWEASSLGLQTAA", "note": "[V21Q]", "protein stability index": 3.22}
{"variant": "EQIAERKRKMVSWEASSLGLWTAA", "note": "[V21W]", "protein stability index": 2.86}
{"variant": "EQIAERKRKMVSWEASSLGLRTAA", "note": "[V21R]", "protein stability index": 2.96}
{"variant": "EQIAERKRKMVSWEASSLGLTTAA", "note": "[V21T]", "protein stability index": 3.62}
{"variant": "EQIAERKRKMVSWEASSLGLLTAA", "note": "[V21L]", "protein stability index": 2.76}
